{
  "source": "paper PMC7277757",
  "about": "“On the Electrochemical Detection of Alpha-Fetoprotein Using Aptamers: DNA Isothermal Amplification Strategies to Improve the Performance of Weak Aptamers”",
  "molecules": {"B1": {"name": "AFP-L-FITC (ssDNA)", "DNA": "GGCAGGAAGACAAACAAGCTTGGCGGCGGGAAGGTGTTTAAATTCCCGGGTCTGCGTGGTCTGTGGTGCTGT"}, "B2": {"name": "AFP-L-TdT (ssDNA)", "DNA": "GGCAGGAAGACAAACAAGCTTGGCGGCGGGAAGGTGTTTAAATTCCCGGGTCTGCGTGGTCTGTGGTGCTGTTTTTTT"}, "B3": {"name": "AFP-S-RCA (ssDNA)", "DNA": "TCAGGTGCAGTTCTCGACTCGGTCTTGATGTGGGTTTTTTTTTTTAGATAGTAAGTGCAATCT"}},
  "key": {"[1]": {"molecular_target": "T1, alpha-fetoprotein (AFP) (Homo sapiens) (UniProt P02771)", "T1 sequence": "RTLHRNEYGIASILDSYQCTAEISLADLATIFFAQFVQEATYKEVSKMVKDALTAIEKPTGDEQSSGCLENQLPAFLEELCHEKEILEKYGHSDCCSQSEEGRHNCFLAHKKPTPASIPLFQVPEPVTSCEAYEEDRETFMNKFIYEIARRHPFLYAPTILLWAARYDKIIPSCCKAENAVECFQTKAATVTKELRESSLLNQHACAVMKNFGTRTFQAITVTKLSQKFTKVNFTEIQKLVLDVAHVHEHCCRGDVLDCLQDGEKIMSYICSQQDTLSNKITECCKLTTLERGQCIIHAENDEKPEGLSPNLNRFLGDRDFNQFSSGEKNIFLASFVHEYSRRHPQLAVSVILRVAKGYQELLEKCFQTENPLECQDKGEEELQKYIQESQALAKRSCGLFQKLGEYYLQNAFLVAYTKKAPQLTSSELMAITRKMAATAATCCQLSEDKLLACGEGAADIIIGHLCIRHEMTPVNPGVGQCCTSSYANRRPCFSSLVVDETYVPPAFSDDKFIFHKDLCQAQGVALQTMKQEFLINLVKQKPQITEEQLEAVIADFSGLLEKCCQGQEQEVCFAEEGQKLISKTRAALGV", "experiment": "magnetic bead binding assay, antiF-POD, chronoamperometry", "conditions": "no amplification; 1:1 fit; 1x PBS, 25 °C, 30 min, 1300 rpm; 60 µg AFP-modified magnetic beads in 250 µL (effective AFP about 34 nM); washes 1x PBS 0.01% Tween 20; pH not stated"}, "alpha-fetoprotein (AFP) [2]": {"molecular_target": "T2, alpha-fetoprotein (AFP) (Homo sapiens, UniProt P02771 19-609)", "T2 sequence": "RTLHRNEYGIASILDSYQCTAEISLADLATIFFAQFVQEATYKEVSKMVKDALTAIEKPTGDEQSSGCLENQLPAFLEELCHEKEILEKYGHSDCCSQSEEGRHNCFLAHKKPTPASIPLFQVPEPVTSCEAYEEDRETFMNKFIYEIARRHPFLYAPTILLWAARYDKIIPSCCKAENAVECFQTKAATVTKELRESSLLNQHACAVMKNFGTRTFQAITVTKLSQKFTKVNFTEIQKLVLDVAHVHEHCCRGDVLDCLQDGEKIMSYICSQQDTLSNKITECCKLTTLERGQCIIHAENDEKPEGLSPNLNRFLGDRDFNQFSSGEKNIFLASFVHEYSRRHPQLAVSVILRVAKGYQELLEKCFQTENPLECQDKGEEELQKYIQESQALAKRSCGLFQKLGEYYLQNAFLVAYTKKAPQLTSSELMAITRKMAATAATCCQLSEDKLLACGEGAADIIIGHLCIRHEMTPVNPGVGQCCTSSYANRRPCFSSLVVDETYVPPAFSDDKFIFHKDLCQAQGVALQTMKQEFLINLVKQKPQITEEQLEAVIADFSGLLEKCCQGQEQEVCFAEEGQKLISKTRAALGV", "experiment": "magnetic bead binding assay, antiF-POD, chronoamperometry; no amplification; Hill n = 1.6 ± 0.4; 1x PBS, 25 °C, 30 min, 1300 rpm; 60 µg AFP-modified magnetic beads in 250 µL (effective AFP about 34 nM); washes 1x PBS 0.01% Tween 20; pH not stated", "conditions": "protein: native; label: 5' FITC"}, "alpha-fetoprotein (AFP) [3]": {"molecular_target": "T2, alpha-fetoprotein (AFP)", "experiment": "magnetic bead binding assay, TdT amplification, SA-POD, chronoamperometry; apparent Kd; TdT elongation after binding; Langmuir fit; 1x PBS, 25 °C, 30 min, 1300 rpm; 60 µg AFP-modified magnetic beads in 250 µL (effective AFP about 34 nM); washes 1x PBS 0.01% Tween 20; pH not stated", "conditions": "protein: native"}, "alpha-fetoprotein (AFP) [4]": {"molecular_target": "T2, alpha-fetoprotein (AFP)", "experiment": "magnetic bead binding assay, RCA amplification, antiF-POD, chronoamperometry; apparent Kd; RCA after binding; Langmuir fit (abstract prints 189 nM); 1x PBS, 25 °C, 30 min, 1300 rpm; 60 µg AFP-modified magnetic beads in 250 µL (effective AFP about 34 nM); washes 1x PBS 0.01% Tween 20; pH not stated", "conditions": "protein: native"}},
  "data": [
    {"molecule": "TCAGGTGCAGTTCTCGACTCGGTCTTGATGTGGGT [AFP-S-FITC]", "values": [
      {"measurement": "Kd", "setting": "[1]", "value": 713, "unit": "nM"}
    ]},
    {"molecule": "B1", "values": [
      {"measurement": "Kd", "setting": "alpha-fetoprotein (AFP) [2]", "value": "526 ± 101", "unit": "nM"}
    ]},
    {"molecule": "B2", "values": [
      {"measurement": "Kd", "setting": "alpha-fetoprotein (AFP) [3]", "value": "32 ± 11", "unit": "nM"}
    ]},
    {"molecule": "B3", "values": [
      {"measurement": "Kd", "setting": "alpha-fetoprotein (AFP) [4]", "value": "188 ± 33", "unit": "nM"}
    ]}
  ]
}
